Test results: patent publication US20190292221A1 (published 2019)

Tests used:
[1] = molecular target: T1, Human EGFR-his (human, UniProt P00533 25-645); experiment: SPR, BEAT®3 captured on Protein G chip, EGFR-his injected; sample after high pH, 2 h
T1 construct: Soluble his-tagged antigen injected over captured BEAT®3; also called hsEGFR; not shown: his tag

[2] = molecular target: T1, Human EGFR-his; experiment: SPR, BEAT®3 captured on Protein G chip, EGFR-his injected; sample after high pH, 24 h
[3] = molecular target: T1, Human EGFR-his; experiment: SPR, BEAT®3 captured on Protein G chip, EGFR-his injected; sample after high pH, 4 h
[4] = molecular target: T1, Human EGFR-his; experiment: SPR, BEAT®3 captured on Protein G chip, EGFR-his injected; sample after high pH, 0 h
[5] = molecular target: T1, Human EGFR-his; experiment: SPR, BEAT®3 captured on Protein G chip, EGFR-his injected; average of 4 replicates of Reference #1 and #2

Average rel KD [1]: 1.02 relative to reference | Relative KD R1 [1]: 1.02 relative to reference | Average rel KD [2]: 1.15 relative to reference | Relative KD R1 [2]: 1.17 relative to reference | Average rel KD [3]: 1.09 relative to reference | Relative KD R1 [3]: 1.11 relative to reference | Average rel KD [4]: 0.98 relative to reference | Relative KD R1 [4]: 0.988 relative to reference | Average rel KD [5]: 1 relative to reference
B1: BEAT®3 (bispecific antibody, human IgG1, kappa, L234A L235A)
chain 1: EVQLVESGGGLVQPGGSLRLSCAASGFTFNTYAMNWVRQAPGKGLEWVARIRSKYNNYATYYADSVKSRFTISRDDSKNTLYLQMNSLRAEDTAVYYCVRHGNFGNSYVSYFAYWGQGTTVTVSSGGGGSGGGGSGGGGSEIVVTQSPATLSVSPGERATLSCRSSTGAVTESNYANWVQEKPGQAFRGLIGGANKRAPGVPARFSGSLSGDEATLTISSLQSEDFAVYYCALFYSNTWVFGQGTKLEIKGGGGTQVQLQESGPGLVKPSETLSLTCTVSGGSVSSGDYYWTWIRQSPGKGLEWIGHIYYSGNTNYNPSLKSRLTISIDTSKTQFSLKLSSVTAADTAIYYCVRDRVTGAFDIWGQGTMVTVSSASTKGPSVFPLAPSSKSTSGGTAALGCLVKDYFPEPVTVSWNSGALTSGVHTFPAVLQSSGLYSLSSVVTVPSSSLGTQTYICNVNHKPSNTKVDKKVEPKSCDKTHTCPPCPAPEAAGGPSVFLFPPKPKDTLMISRTPEVTCVVVDVSHEDPEVQFKWYVDGVEVHNAKTKPREEQYNSTFRVVSVLTVLHQDWLNGKEYKCKVSNKALPAPIEKTISKTKGQPREPAVYTLPPSREEMTKNQVKLVCLVTGFYPSDIAVEWESSGQPENNYYTTPPMLDSDGSFSLVSWLNVDKSRWQQGNIFSCSVMHEALHNRFTQKSLSLSPG
chain 2: not shown
chain 3: DKTHTCPPCPAPEAAGGPSVFLFPPKPKDTLMISRTPEVTCVVVDVSHEDPEVKFNWYVDGVEVHNAKTKPREEQYNSTYRVVSVLTVLHQDWLNGKEYKCKVSNKALPAPIEKTISKAKGQPREPEVATFPPSRDELTKNQVTLVCLVTGFYPSDIAVEWESNGQPENNYKTDPPLLESDGSFALSSRLRVDKSRWQQGNVFSCSVMHEALHNHYTQKSLSLSPG
notes: also called third BEAT antibody
